In patent US20180369326A1 (LA JOLLA INSTITUTE FOR ALLERGY AND IMMUNOLOGY, published 2018):
Changes are numbered by the printed parent chain.

T1: WT ICOS (wild-type inducible T-cell costimulator, transfected into Jurkat JTAg T cells) (Homo sapiens (Human), UniProt Q9Y6W8 21-199)
T1 sequence: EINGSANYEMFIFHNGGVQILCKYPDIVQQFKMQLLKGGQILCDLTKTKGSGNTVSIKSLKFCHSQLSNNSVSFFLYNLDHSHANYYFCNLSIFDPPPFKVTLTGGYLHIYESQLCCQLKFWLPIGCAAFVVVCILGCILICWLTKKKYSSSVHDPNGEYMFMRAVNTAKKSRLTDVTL

B1: FLAG-tagged WT TRAF3 (other)
chain: MESSKKMDSPGALQTNPPLKLHTDRSAGTPVFVPEQGGYKEKFVKTVEDKYKCEKCHLVLCSPKQTECGHRFCESCMAALLSSSSPKCTACQESIVKDKVFKDNCCKREILALQIYCRNESRGCAEQLMLGHLLVHLKNDCHFEELPCVRPDCKEKVLRKDLRDHVEKACKYREATCSHCKSQVPMIALQKHEDTDCPCVVVSCPHKCSVQTLLRSELSAHLSECVNAPSTCSFKRYGCVFQGTNQQIKAHEASSAVQHVNLLKEWSNSLEKKVSLLQNESVEKNKSIQSLHNQICSFEIEIERQKEMLRNNESKILHLQRVIDSQAEKLKELDKEIRPFRQNWEEADSMKSSVESLQNRVTELESVDKSAGQVARNTGLLESQLSRHDQMLSVHDIRLADMDLRFQVLETASYNGVLIWKIRDYKRRKQEAVMGKTLSLYSQPFYTGYFGYKMCARVYLNGDGMGKGTHLSLFFVIMRGEYDALLPWPFKQKVTLMLMDQGSSRRHLGDAFKPDPNSSSFKKPTGEMNIASGCPVFVAQTVLENGTYIKDDTIFIKVIVDTSDLPDP
notes: Expressed in HEK293T cells; The position of the FLAG tag is unknown; not shown: FLAG tag
B2: ICOS with alanine-substituted IProx motif (170…179 to 170AAAAAAAAAA179) (receptor)
chain: T1 sequence with S150A, S151A, S152A, V153A, H154A, D155A, P156A, N157A, G158A, E159A
notes: Expressed from a plasmid in Jurkat JTAg cells; also called mIProx; IProx mutant
B3: TANK-binding kinase 1 (TBK1), endogenous, human cell lines (Jurkat JTAg, HEK293T) (enzyme, UniProt Q9UHD2 1-729, looked up)
chain: MQSTSNHLWLLSDILGQGATANVFRGRHKKTGDLFAIKVFNNISFLRPVDVQMREFEVLKKLNHKNIVKLFAIEEETTTRHKVLIMEFCPCGSLYTVLEEPSNAYGLPESEFLIVLRDVVGGMNHLRENGIVHRDIKPGNIMRVIGEDGQSVYKLTDFGAARELEDDEQFVSLYGTEEYLHPDMYERAVLRKDHQKKYGATVDLWSIGVTFYHAATGSLPFRPFEGPRRNKEVMYKIITGKPSGAISGVQKAENGPIDWSGDMPVSCSLSRGLQVLLTPVLANILEADQEKCWGFDQFFAETSDILHRMVIHVFSLQQMTAHKIYIHSYNTATIFHELVYKQTKIISSNQELIYEGRRLVLEPGRLAQHFPKTTEENPIFVVSREPLNTIGLIYEKISLPKVHPRYDLDGDASMAKAITGVVCYACRIASTLLLYQELMRKGIRWLIELIKDDYNETVHKKTEVVITLDFCIRNIEKTVKVYEKLMKINLEAAELGEISDIHTKLLRLSSSQGTIETSLQDIDSRLSPGGSLADAWAHQEGTHPKDRNVEKLQVLLNCMTEIYYQFKKDKAERRLAYNEEQIHKFDKQKLYYHATKAMTHFTDECVKKYEAFLNKSEEWIRKMLHLRKQLLSLTNQCFDIEEEVSKYQEYTNELQETLPQKMFTASSGIKHTMTPIYPSSNTLVEMTLGMKKLKEEMEGVVKELAENNHILERFGSLTMDGGLRNVDCL
notes: Species follows from the human cell lines; also called endogenous TBK1

How the values were obtained:
[1] = target: WT ICOS (wild-type inducible T-cell costimulator, transfected into Jurkat JTAg T cells) (Homo sapiens (Human)) (UniProt Q9Y6W8); experiment: SILAC mass spectrometry of anti-ICOS IPs from Jurkat cells expressing WT ICOS or mIProx, stimulated with anti-CD3 plus anti-ICOS
[2] = target: B3; experiment: anti-FLAG IP and immunoblot, transfected HEK293T cells (FIG. 6e)
Procedure: Shown are representative of three experiments.
(§1) The human leukemic Jurkat T cell line, JTAg, was previously described (Li, J et al. J Immunol 2013, 191(1): 200-207; Rolf J et al., J Immunol 2010, 185(7): 4042-4052) and the HEK 293T cell line was obtained from ATCC. These cell lines have not been recently STR profiled but tested negative for mycoplasma contamination. JTAg cells in logarithmic growth phase were transfected with plasmid DNAs by electroporation and incubated for 24 hours.

[3] = target: T2, p85α, the regulatory subunit of PI3K, endogenous, Jurkat cells (human, UniProt P27986 2-724); experiment: co-IP (anti-ICOS IP, immunoblot), transfected Jurkat cells stimulated with anti-CD3 plus anti-ICOS (FIG. 2b, 2c)
T2 construct: Species follows from the human cell line; also called p85a
T2 sequence (P27986 2-724): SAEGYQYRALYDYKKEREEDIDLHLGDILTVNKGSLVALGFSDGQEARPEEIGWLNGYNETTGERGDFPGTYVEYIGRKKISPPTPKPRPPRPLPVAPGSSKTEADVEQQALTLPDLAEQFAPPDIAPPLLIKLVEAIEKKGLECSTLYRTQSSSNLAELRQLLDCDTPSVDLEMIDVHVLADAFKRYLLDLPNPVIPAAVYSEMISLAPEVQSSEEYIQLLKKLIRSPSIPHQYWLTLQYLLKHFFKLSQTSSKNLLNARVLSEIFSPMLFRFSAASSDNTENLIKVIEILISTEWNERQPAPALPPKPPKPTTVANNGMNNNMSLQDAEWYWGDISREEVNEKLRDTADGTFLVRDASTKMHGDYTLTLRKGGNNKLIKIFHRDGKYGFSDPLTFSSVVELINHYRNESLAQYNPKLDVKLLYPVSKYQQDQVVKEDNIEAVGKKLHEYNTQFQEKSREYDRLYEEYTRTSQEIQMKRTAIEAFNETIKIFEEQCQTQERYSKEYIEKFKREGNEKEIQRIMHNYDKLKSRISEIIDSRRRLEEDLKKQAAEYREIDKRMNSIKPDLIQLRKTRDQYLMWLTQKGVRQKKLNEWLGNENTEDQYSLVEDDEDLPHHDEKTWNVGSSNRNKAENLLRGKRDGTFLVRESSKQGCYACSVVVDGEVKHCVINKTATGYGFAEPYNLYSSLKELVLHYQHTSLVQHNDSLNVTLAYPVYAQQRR
Excerpt: IPs or whole cell lysates (WCL) were immunoblotted with the indicated Abs. 5% WCL was used as input to control for IP Western. […] Jurkat T cells transfected with WT ICOS, mIProx, YF or tailless (TL) ICOS plasmids were stimulated with anti-CD3 plus −ICOS mAbs prior to IP and immunoblotting. […] In vitro activated primary mouse CD4⁺ T cells were stimulated with anti-CD3 plus the indicated costimulatory mAbs, and IP or WCL were subjected to immunoblotting with the indicated Abs. Shown are representative of three experiments.
as §1

[4] = target: T1, WT ICOS (wild-type inducible T-cell …); experiment: SILAC mass spectrometry of anti-ICOS IPs from Jurkat cells expressing WT ICOS or mIProx, stimulated with anti-CD3 plus anti-ICOS
Procedure: FACS-sorted GFP⁺ transduced cells were stimulated with α-CD3 plus α-ICOS mAbs for 2 minutes. 300 μg of the protein mixture derived from WT and mutant cell lysate were mixed at a 1:1 ratio, and immunoprecipitated with anti-ICOS mAb. Immunoprecipitants were subjected to an on-bead digestion protocol. The proteins were reduced with 100 mM Tris-HCl/8 M urea/5 mM tris(2-carboxyethyl)phosphine, and alkylated with 10 mM iodoacetamide. The solution was diluted 1:4 and digested with 1 μg of trypsin at 37° C. overnight. […] MS analysis was performed using an LTQ-Orbitrap Velos mass spectrometer (Thermo Fisher). […] The experiments were biologically repeated in four replicates, including medium isotope type swapping (heavy or light) between WT and mutant cells.

Row | Fold Change (differential binding ratio, WT ICOS IP vs mIProx ICOS IP) [1] | Molecule | also measured
1 | 2.08 fold | SLP76 (TCR signaling), endogenous, Jurkat cells (from UniProt Q13094 1-533) | –
2 | 3.13 fold | BAG6 (chaperone), endogenous, Jurkat cells (from UniProt P46379 1-1132) | –
3 | 2.95 fold | NAA10 (acetyltransferase), endogenous, Jurkat cells (from UniProt P41227 1-235) (enzyme) | –
4 | 5.26 fold | MYCBP2 (E3 ligase), endogenous, Jurkat cells (from UniProt O75592 1-4678) (enzyme) | –
5 | 2.17 fold | GAK (cell cycle kinase), endogenous, Jurkat cells (from UniProt O14976 2-1311) (enzyme) | –
6 | 1.81 fold | Erlin2 (ER protein), endogenous, Jurkat cells (from UniProt O94905 1-339) | –
7 | – | B1 | binding result [2]: binds
8 | – | B2 | binding result [3]: binds
9 | – | B3 | Fold Change (differential binding ratio, WT ICOS IP vs mIProx ICOS IP) [4]: 7.69 fold
